Test results: patent US20090087437A1 (Dana-Farber, published 2009)

Assays:
Test in all cases: co-immunoprecipitation from cell lysates, western blot
Bcl-xL = target: T1, Bcl-xL (UniProt Q07817 1-233)
T1 construct: also called multidomain antiapoptotic Bcl-xL protein

cIAP2 = target: T2, cIAP2 (UniProt Q13489 1-604)
T2 construct: The list of antibodies in the same sentence prints 'cIAP', while the result names 'cIAP2'

Bcl-2 = target: T3, Bcl-2 (UniProt P10415 1-239)
T3 construct: also called multidomain antiapoptotic Bcl-2 protein
T3 sequence (P10415 whole entry): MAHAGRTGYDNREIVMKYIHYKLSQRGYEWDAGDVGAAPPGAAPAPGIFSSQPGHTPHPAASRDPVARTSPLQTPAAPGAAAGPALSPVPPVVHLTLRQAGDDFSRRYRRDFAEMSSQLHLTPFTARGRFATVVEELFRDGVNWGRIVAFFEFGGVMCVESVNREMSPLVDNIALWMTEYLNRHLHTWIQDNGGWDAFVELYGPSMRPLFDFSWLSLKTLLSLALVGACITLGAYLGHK

cIAP1 = cIAP1 (UniProt Q13490 1-618)
Sequence of cIAP1 (Q13490 whole entry): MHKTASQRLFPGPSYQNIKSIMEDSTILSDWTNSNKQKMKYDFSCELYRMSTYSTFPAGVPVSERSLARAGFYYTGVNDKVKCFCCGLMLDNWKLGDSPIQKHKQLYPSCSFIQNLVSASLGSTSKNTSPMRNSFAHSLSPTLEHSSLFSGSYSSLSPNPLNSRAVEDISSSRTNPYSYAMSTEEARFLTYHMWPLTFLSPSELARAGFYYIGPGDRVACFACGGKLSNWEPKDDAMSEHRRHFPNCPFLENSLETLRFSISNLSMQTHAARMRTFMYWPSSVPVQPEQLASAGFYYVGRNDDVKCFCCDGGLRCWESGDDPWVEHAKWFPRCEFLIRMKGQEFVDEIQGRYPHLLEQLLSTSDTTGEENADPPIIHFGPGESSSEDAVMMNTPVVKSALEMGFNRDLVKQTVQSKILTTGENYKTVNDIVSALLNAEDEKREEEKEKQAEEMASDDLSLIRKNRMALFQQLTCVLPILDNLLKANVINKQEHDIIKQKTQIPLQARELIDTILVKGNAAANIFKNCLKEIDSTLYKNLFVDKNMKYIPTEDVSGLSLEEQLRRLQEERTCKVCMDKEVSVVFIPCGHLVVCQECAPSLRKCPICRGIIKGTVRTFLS

XIAP = XIAP (UniProt P98170 1-497)
Sequence of XIAP (P98170 whole entry): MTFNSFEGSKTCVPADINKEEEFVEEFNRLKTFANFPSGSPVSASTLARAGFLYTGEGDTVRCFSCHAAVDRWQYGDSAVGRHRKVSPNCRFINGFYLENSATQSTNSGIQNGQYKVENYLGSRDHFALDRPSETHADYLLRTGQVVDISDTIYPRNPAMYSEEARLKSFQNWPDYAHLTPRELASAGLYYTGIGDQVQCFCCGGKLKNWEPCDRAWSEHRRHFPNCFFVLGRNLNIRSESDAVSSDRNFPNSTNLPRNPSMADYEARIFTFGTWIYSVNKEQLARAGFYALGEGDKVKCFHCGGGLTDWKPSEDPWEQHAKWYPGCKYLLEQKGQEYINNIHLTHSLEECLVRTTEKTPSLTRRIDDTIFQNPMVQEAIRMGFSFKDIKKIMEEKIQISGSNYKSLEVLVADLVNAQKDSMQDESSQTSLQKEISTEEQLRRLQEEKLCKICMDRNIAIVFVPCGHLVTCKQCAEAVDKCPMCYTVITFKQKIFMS

T2 sequence (Q13489 whole entry): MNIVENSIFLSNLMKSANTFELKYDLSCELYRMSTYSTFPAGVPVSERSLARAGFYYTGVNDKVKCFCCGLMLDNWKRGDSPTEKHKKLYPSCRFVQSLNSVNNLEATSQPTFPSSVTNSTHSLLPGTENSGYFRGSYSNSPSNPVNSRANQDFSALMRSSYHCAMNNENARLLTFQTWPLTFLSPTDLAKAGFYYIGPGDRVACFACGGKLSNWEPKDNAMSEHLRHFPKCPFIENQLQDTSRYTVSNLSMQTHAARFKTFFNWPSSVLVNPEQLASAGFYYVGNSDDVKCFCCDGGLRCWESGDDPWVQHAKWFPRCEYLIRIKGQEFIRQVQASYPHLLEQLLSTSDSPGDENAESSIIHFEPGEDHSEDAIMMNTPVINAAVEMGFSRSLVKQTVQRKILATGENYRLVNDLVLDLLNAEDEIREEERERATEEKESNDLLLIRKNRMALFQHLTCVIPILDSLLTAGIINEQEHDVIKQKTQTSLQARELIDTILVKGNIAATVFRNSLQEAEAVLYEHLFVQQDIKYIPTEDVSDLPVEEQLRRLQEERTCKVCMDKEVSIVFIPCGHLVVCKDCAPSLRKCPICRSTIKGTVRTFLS
T1 sequence (Q07817 whole entry): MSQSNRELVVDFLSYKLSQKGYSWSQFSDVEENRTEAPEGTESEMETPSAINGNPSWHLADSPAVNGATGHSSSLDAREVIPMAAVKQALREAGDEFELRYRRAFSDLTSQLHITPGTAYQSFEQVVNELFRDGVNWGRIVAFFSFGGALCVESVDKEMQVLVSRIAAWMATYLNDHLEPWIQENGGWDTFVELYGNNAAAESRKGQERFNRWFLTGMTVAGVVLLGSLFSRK

binding result (Bcl-xL): no binding | binding result (cIAP2): no binding | binding result (Bcl-2): no binding | binding result (cIAP1): no binding | binding result (XIAP): no binding
B1: MUC1 C-terminal transmembrane subunit (MUC1-C) (other, UniProt P15941 1098-1255, looked up)
chain: SVVVQLTLAFREGTINVHDVETQFNQYKTEAASRYNLTISDVSVSDVPFPFSAQSGAGVPGWGIALLVLVCVLVALAIVYLIALAVCQCRRKNYGQLDIFPARDTYHPMSEYPTYHTHGRYVPPSSTDRSPYEKVSAGNGGSSLSYTNPAVAATSANL
notes: Endogenous protein immunoprecipitated from MCF7 lysates with an anti-MUC1-C antibody
